# Reference: patent publication US5891439
# Biological target: mouse CD8 (mouse) (UniProt P01731)
# Assay: cell ELISA on dried mouse thymocytes containing CD8+ cells, detection with biotinylated MO3
substance,measurement,value
"native trypanosome-derived lymphocyte triggering factor (TLTF), antibody affinity purified (ligand)",dilution of TLTF down to which a signal above background was obtained,0.001 dilution
